Bridges are numbered along the chain shown (N, C = ends). Where no end group is shown, it is not given here.

The first experiment has as its system MCF-7. Briefly: Flow cytometry of phage binding to EGFR negative tumor cells. Type of experiment: cell-based, human. The following applies: EGFR positive versus EGFR negative cells. The method, then:
(§1) Flow cytometry. To evaluate whether the selected peptides from phage display can bind to tumor cells that overexpress EGFR, A431 cells (epidermoid cancer) or an EGFR negative tumor cells, MCF-7 (breast carcinoma) were tested in a flow cytometry assay using fluorescence detection (FACS). For P145, PP146 and their control phage, 2.5×10^5 A431 cells were resuspended in 25 μl of flow staining buffer (dPBS with 1% BSA, 0.09% sodium azide) and incubated with 25 μl of phage clones for 1 hour at 4° C. […] Cells were washed two times with flow staining buffer and then incubated with 0.5 μg of mouse anti M13/fd/F1 filamentous phages monoclonal antibody conjugated to FITC (Fitzgerald Industries International, Inc. Concord, Mass.) for 45 minutes at 4° C. Cells were washed two times with flow staining buffer and acquired by FACSCalibur (BD, Franklin Lakes, N.J.) to detect bound phages on tumor cell surface. Results.
(§2) A431 cells (epidermoid cancer) which overexpress EGFR and EGFR-negative tumor cells, MCF-7 (breast carcinoma) were tested in a flow cytometry assay. Tumor cells (A431 and MCF-7) were harvested with 0.25% tyrpsin-EDTA and washed twice with FACS staining buffer (dPBS with 1% BSA, 0.09% sodium azide). […] After binding at 4° C., cells were washed twice with FACS staining buffer to remove unbound phage and then incubated with 0.5 μg of mouse anti-M13 monoclonal antibody conjugated to FITC (Fitzgerald Industries International, Inc. Concord, Mass.) for 1 hour at 4° C. Mouse anti-M13-FITC incubated with cells without phage was used as background binding. Cells were washed twice with FACS staining buffer to remove unbound detection antibody.
A general note: In flow cytometry, cells or beads pass a laser one at a time.
For VLCHRYYHPICYT [P145], the “binding to A431 compared with MCF-7” value is given as “greater binding to A431 than MCF-7 cells”.

For “SGCLDALWQCVY (S16 and S17 hits Phage 174) [P174]”, the “binding to A431 compared with MCF-7” value is given as “greater to A431 than to MCF-7”.

For another experiment, the target named is T1, sEGFR-MMB (Homo sapiens, UniProt P00533).
T1 construct: made in house; host or cells: Human Embryonic Kidney cells (293E)
Briefly: Phage ELISA screening of panning hits. Type of experiment: binding. The following applies: phage clone culture supernatant; background typically <200 units. The method, then:
Phage Screening. Individual phage clones from selections were amplified and screened for EGFR binding by phage ELISA. To amplify pIII phage for screening, phage eluates from round 3 were diluted appropriately and plated with a lawn of XL-1 Blue to yield isolated single plaques. 24 plaques from each pool were picked and inoculated into a culture of XL-1 Blue host cells. The cultures were shaken at 37° C. for 4.5 hr and the cells were removed by centrifugation. To amplify pIX-displaying phagemid clones, phage eluates were infected into XL-1 Blue and plated onto LB-ampicillin plates. Individual colonies were cultured in 1 ml volumes and rescued with VCS-M13 helper phage. Bacterial cells were removed from phage cultures by centrifugation at (2250×g, 7 min) and the phage-containing supernatant was saved.
The protein solution was removed and wells were rinsed twice with Tris-Buffered Saline containing 0.05% Tween-20 (TBS-T) using a plate washer (Embla). The wells were blocked with Starting Block in TBS for 1 hr at room temperature and rinsed twice with TBS-T. An equal volume of phage supernatant and Starting Block in TBS were incubated in the wells for 1 hr at room temperature, and the wells were rinsed five times with TBS-T. Anti-M13/horseradish peroxidase conjugate (Amersham), diluted 1:5000 in Starting Block in TBS, was added into the wells and incubated for 1 hour at room temperature, and then the wells were rinsed five times with TBS-T. Finally, chemiluminescent peroxidase substrate (Roche) was added to the wells, and chemiluminescence was measured on a Tecan plate reader.
Sequences and ELISA signal (background typically <200 units) are given, along with a consensus sequence, if any. Cysteines that are fixed in the library design are underlined.
A general note: In an ELISA, binding on a coated surface is turned into a signal by an enzyme label.
In turn, “32 (SDCVLFGSKLFCSA; families were identified from the S18 library) [compound 32]” returned an ELISA signal of 35327 units.

For the substance “19 (GADTLPDLLCWESSL; S15 library, which displays a random linear 15-mer) [compound 19]”, the ELISA signal came out at 5722 units.

“15 (NWFSLPTLLCFPLNP; S15 library, which displays a random linear 15-mer) [compound 15]” came in with an ELISA signal of 3669 units.

For “33 (TDCVRFGETIYCIV; Peptide family identified from the S18 library) [compound 33]”, the ELISA signal is 13291 units.

“45 (DSCCSFLTDGTVVCSL; Peptide family identified from the S20 library) [compound 45]” returned an ELISA signal of 9544 units.

In the case of “27 (DSCIQFANLLYCAI; Peptide family identified from the S18 library) [compound 27]”, the ELISA signal is given as 53162 units.

Substance “30 (AYCSFVAGDLVCQV; Peptide family identified from the S18 library) [compound 30]” gave an ELISA signal of 19792 units.

The substance “17 (PIDDESLPVLYCVTS; Random peptide) [compound 17]” displayed an ELISA signal of 1785 units.

Consider “21 (LPDLICAVDSGTSGA; S15 library, which displays a random linear 15-mer) [compound 21]”, for which the ELISA signal is 1161 units.

In the case of “46 (YICTPSDIDSWYICYL; Peptide family identified from the S20 library) [compound 46]”, the ELISA signal turned out to be 6615 units.

The substance “23 (AGCIAFVDVVYCAR; Peptide family identified from the S18 library) [compound 23]” gave an ELISA signal of 6377 units.

The substance “49 (LLCATTSFRDWFVCFT; Peptide family identified from the S20 library) [compound 49]” displayed an ELISA signal of 4512 units.

Regarding “31 (TDCVIFGLETYCLR; disulfide 3-12 (inferred)) [compound 31]”, the ELISA signal turned out to be 37925 units.

In turn, “37 (MICYLVDSGNIICYK; Peptide family identified from the S19 library) [compound 37]” returned an ELISA signal of 8806 units.

In turn, “28 (TDCIRFGVLWYCLV; Peptide family identified from the S18 library) [compound 28]” registered an ELISA signal of 4746 units.

The substance “KTCVSTTFDLWFVCFA (disulfide 3-14 (inferred)) [P176]” returned an ELISA signal of 37440 units.

Regarding “40 (AFCRLDFNQWLTCLV; Peptide family identified from the S19 library) [compound 40]”, the ELISA signal is 2581 units.

Substance “18 (PIFSSLPVLYCTSQL; S15 library, which displays a random linear 15-mer) [compound 18]” showed an ELISA signal of 1425 units.

As for “34 (YDCVSFGAVAYCPQ; Peptide family identified from the S18 library) [compound 34]”, the ELISA signal was determined as 3205 units.

“20 (TVFTLPELVCVVAGT; S15 library, which displays a random linear 15-mer) [compound 20]” showed an ELISA signal of 1515 units.

In turn, “29 (RACITFGKVVYCEV; Peptide family identified from the S18 library) [compound 29]” yielded an ELISA signal of 30741 units.

In turn, “38 (YDCMIRADGSLICWC; Peptide family identified from the S19 library) [compound 38]” returned an ELISA signal of 1286 units.

Take “SGCLDALWQCVY (S16 and S17 hits Phage 174) [P174]”: the ELISA signal is 34641 units.

As to “35 (RGCVVFGDNIYCIV; Peptide family identified from the S18 library) [compound 35]”, the ELISA signal is on record as 21963 units.

With “12 (VSGILPILVCHPAAT; S15 library, which displays a random linear 15-mer) [compound 12]”, the ELISA signal was determined as 1107 units.

As for “26 (KHCILFEKTVYCAK; Peptide family identified from the S18 library) [compound 26]”, the ELISA signal is 9111 units.

“39 (GPCVLIRDYYLLCLE; disulfide 3-13 (inferred)) [compound 39]” gave an ELISA signal of 13951 units.

Turning to “RWCYFWWITICEL (S16 and S17 hits Phage 178) [P178]”, the ELISA signal is 7913 units.

With “41 (CDCREAVSASLVCRY; Peptide family identified from the S19 library) [compound 41]”, the ELISA signal is 3347 units.

In turn, “DACTMVFLWCSL (S16 and S17 hits Phage 177) [P177]” had an ELISA signal of 8655 units.

“16 (STITSLPTLQCWPIL; S15 library, which displays a random linear 15-mer) [compound 16]”: the ELISA signal was 13332 units.

In the case of “11 (ELGLPTLLCWPTDTL; S15 library, which displays a random linear 15-mer) [compound 11]”, the ELISA signal is 9380 units.

In the case of “14 (HVSLQSLPELICVVS; S15 library, which displays a random linear 15-mer) [compound 14]”, the ELISA signal is given as 1362 units.

On to “43 (PTCDSATRRVLTICAD; Peptide family identified from the S20 library) [compound 43]”, for which the ELISA signal is on record as 5420 units.

For the substance “47 (SVCVGTAFPGWMVCGP; Peptide family identified from the S20 library) [compound 47]”, the ELISA signal is on record as 4771 units.

For the substance “10 (YRLFVDESIFFCTRL; S15 library, which displays a random linear 15-mer) [compound 10]”, the ELISA signal is recorded as 3078 units.

“LPDDSLPELICKVRG (S15 library, which displays a random linear 15-mer) [P175]” had an ELISA signal of 6790 units.

In turn, “44 (WMCFLEGYGASLMCQC; Peptide family identified from the S20 library) [compound 44]” had an ELISA signal of 4795 units.

Turning to “24 (AKCIAFGNSVYCLN; Peptide family identified from the S18 library) [compound 24]”, the ELISA signal worked out at 31524 units.

In the case of “25 (RDCIIFDKTVYCVI; Peptide family identified from the S18 library) [compound 25]”, the ELISA signal turned out to be 17060 units.

Another experiment concerns A431 cells. The experiment can be described thus: Flow cytometry of phage binding to tumor cells. In kind it is cell-based, human.
Details: not given
The protocol:
as §1, §2
For the substance “KTCVSTTFDLWFVCFA (disulfide 3-14 (inferred)) [P176]”, the “binding to A431 relative to positive control EGF phage” value is on record as “comparable to that by a positive control phage”.

Regarding “TLCRSFFHPLCYA (Sequences of EGFR-Binding Peptides from pIII phage library (CNL5 P146))”, the “binding to A431 relative to positive control EGF phage” value was “weaker than that exhibited by a positive control phage”.

Consider VLCHRYYHPICYT [P145], for which the “binding to A431 relative to positive control EGF phage” value is given as “weaker than that exhibited by a positive control phage”.

On to “SGCLDALWQCVY (S16 and S17 hits Phage 174) [P174]”, for which the “binding to A431 relative to positive control EGF phage” value is “comparable to that by a positive control phage”.

The experiment is the same for the next values; noted with them: anti-phage-FITC antibody, 4° C.
For the substance “KTCVSTTFDLWFVCFA (disulfide 3-14 (inferred)) [P176]”, the “binding to A431 tumor cells” value is “displayed binding”.

With “TLCRSFFHPLCYA (Sequences of EGFR-Binding Peptides from pIII phage library (CNL5 P146))”, the “binding to A431 tumor cells” value is listed as “displayed binding”.

Regarding VLCHRYYHPICYT [P145], the “binding to A431 tumor cells” value was “displayed binding”.

Regarding “SGCLDALWQCVY (S16 and S17 hits Phage 174) [P174]”, the “binding to A431 tumor cells” value is given as “displayed binding”.

(Values after patent US8536113B2, “EGFR binding peptides and uses thereof” (Janssen Biotech, Inc., priority 2006, dated 2013).)
